Assay results: the Immune Epitope Database (IEDB)

Assays:
HLA-A*68:02 = assay: IEDB peptide-MHC binding, cellular MHC/competitive/fluorescence; ≥ and ≤ were set here for values at or beyond the usual limits of such assays
HLA-A*02:01 = assay: IEDB peptide-MHC binding, purified MHC/competitive/radioactivity; ≥ and ≤ were set here for values at or beyond the usual limits of such assays
HLA-A*02:02 = assay: as above
HLA-A*02:06 = assay: as above
HLA-A*02:03 = assay: as above
[1] = source organism: Vaccinia virus WR
[2] = source organism: Mammarenavirus lassaense
[3] = source organism: Influenza A virus
[4] = source organism: Hepacivirus hominis

| Sequence | IC50 (HLA-A*68:02; [1]) | IC50 (HLA-A*02:01; [1]) | IC50 (HLA-A*02:02; [1]) | IC50 (HLA-A*02:06; [1]) | IC50 (HLA-A*02:03; [1]) | further results |
| --- | --- | --- | --- | --- | --- | --- |
| NLLEQLIENI | 24700 nM | 326 nM | 836 nM | 396 nM | 1440 nM |  |
| LLMEGLKLLS |  |  |  |  |  | IC50 (HLA-A*68:02; [2]): 8470 nM; IC50 (HLA-A*02:01; [2]): 12 nM; IC50 (HLA-A*02:02; [2]): 78 nM; IC50 (HLA-A*02:06; [2]): 1750 nM; IC50 (HLA-A*02:03; [2]): 40 nM |
| LMWFIISIV |  |  |  |  |  | IC50 (HLA-A*68:02; source organism: SARS-CoV1): 18400 nM; IC50 (HLA-A*02:01; source organism: SARS-CoV1): 9.8 nM; IC50 (HLA-A*02:02; source organism: SARS-CoV1): 60 nM; IC50 (HLA-A*02:06; source organism: SARS-CoV1): 27 nM; IC50 (HLA-A*02:03; source organism: SARS-CoV1): 7.2 nM |
| ALDGVLSTFV |  |  |  |  |  | IC50 (HLA-A*68:02; source organism: SARS-CoV1): 5200 nM; IC50 (HLA-A*02:01; source organism: SARS-CoV1): 28 nM; IC50 (HLA-A*02:02; source organism: SARS-CoV1): 3.3 nM; IC50 (HLA-A*02:06; source organism: SARS-CoV1): 140 nM; IC50 (HLA-A*02:03; source organism: SARS-CoV1): 28 nM |
| VLEKKVCAIT | ≥ 70000 nM | 3510 nM | 590 nM | 1680 nM | 1240 nM |  |
| CLTVPNITI | 8000 nM | 1190 nM | 96 nM | 1660 nM | 75 nM |  |
| AIMDKNIML |  |  |  |  |  | IC50 (HLA-A*68:02; [3]): 13000 nM; IC50 (HLA-A*02:01; [3]): 75 nM; IC50 (HLA-A*02:02; [3]): 153 nM; IC50 (HLA-A*02:06; [3]): 304 nM; IC50 (HLA-A*02:03; [3]): 802 nM |
| KTIISEEYL | 10900 nM | 694 nM | 916 nM | 150 nM | 1220 nM |  |
| VLTSVDIETA | 11400 nM | 747 nM | 62 nM | 1410 nM | 421 nM |  |
| LILSNKLLYA | 9790 nM | 169 nM | 468 nM | 36 nM | 122 nM |  |
| IMRNFLRSIA | 54200 nM | 813 nM | 60 nM | 544 nM | 122 nM |  |
| ALLFLMSFT |  |  |  |  |  | IC50 (HLA-A*68:02; source organism: SARS-CoV1): 16000 nM; IC50 (HLA-A*02:01; source organism: SARS-CoV1): 406 nM; IC50 (HLA-A*02:02; source organism: SARS-CoV1): 2830 nM; IC50 (HLA-A*02:06; source organism: SARS-CoV1): 128 nM; IC50 (HLA-A*02:03; source organism: SARS-CoV1): 1990 nM |
| YLVTRNADV |  |  |  |  |  | IC50 (HLA-A*68:02; [4]): ≥ 70000 nM; IC50 (HLA-A*02:01; [4]): 296 nM; IC50 (HLA-A*02:02; [4]): 55 nM; IC50 (HLA-A*02:06; [4]): 4320 nM; IC50 (HLA-A*02:03; [4]): 62 nM |
| SLTQVKELGI | 7150 nM | 210 nM | 9.8 nM | 157 nM | 75 nM |  |
| GAFMYTKHSM | 9600 nM | 2000 nM | 544 nM | 3140 nM | 458 nM |  |
| GLLDSIKMI | ≥ 70000 nM | 15 nM | 80 nM | 43 nM | 14 nM |  |
| SLVTSFLLM |  |  |  |  |  | IC50 (HLA-A*68:02; source organism: SARS-CoV1): 50100 nM; IC50 (HLA-A*02:01; source organism: SARS-CoV1): 271 nM; IC50 (HLA-A*02:02; source organism: SARS-CoV1): 66 nM; IC50 (HLA-A*02:06; source organism: SARS-CoV1): 257 nM; IC50 (HLA-A*02:03; source organism: SARS-CoV1): 49 nM |

| Sequence | IC50 (HLA-A*68:02; [1]) | IC50 (HLA-A*02:01; [1]) | IC50 (HLA-A*02:02; [1]) | IC50 (HLA-A*02:06; [1]) | IC50 (HLA-A*02:03; [1]) | further results |
| --- | --- | --- | --- | --- | --- | --- |
| FLARKGIDT | ≥ 70000 nM | 1420 nM | 1020 nM | 3040 nM | 318 nM |  |
| KINPLLDEPL | 10100 nM | 1470 nM | 53 nM | 19 nM | 304 nM |  |
| LIYRQLTSNV | 6390 nM | 663 nM | 79 nM | 169 nM | 7.5 nM |  |
| PTWLGAAITL | 7400 nM | 4810 nM | 1360 nM | 1770 nM | 1010 nM |  |
| FLLNKEMYL |  |  |  |  |  | IC50 (HLA-A*68:02; source organism: SARS-CoV1): 12000 nM; IC50 (HLA-A*02:01; source organism: SARS-CoV1): 1.1 nM; IC50 (HLA-A*02:02; source organism: SARS-CoV1): 0.33 nM; IC50 (HLA-A*02:06; source organism: SARS-CoV1): 1.6 nM; IC50 (HLA-A*02:03; source organism: SARS-CoV1): 1.1 nM |
| RLVPGATYAL |  |  |  |  |  | IC50 (HLA-A*68:02; [4]): 45800 nM; IC50 (HLA-A*02:01; [4]): 150 nM; IC50 (HLA-A*02:02; [4]): 12 nM; IC50 (HLA-A*02:06; [4]): 834 nM; IC50 (HLA-A*02:03; [4]): 834 nM |
| LLLENKSLTI | 9580 nM | 439 nM | 982 nM | 1320 nM | 985 nM |  |
| KLPTWLGAA | ≥ 70000 nM | 207 nM | 499 nM | 9.4 nM | 8 nM |  |
| FLLALLSCI |  |  |  |  |  | IC50 (HLA-A*68:02; [4]): ≥ 70000 nM; IC50 (HLA-A*02:01; [4]): 2.4 nM; IC50 (HLA-A*02:02; [4]): 8.7 nM; IC50 (HLA-A*02:06; [4]): 15 nM; IC50 (HLA-A*02:03; [4]): 7.3 nM |
| VLLPFYETL | 24300 nM | 7.2 nM | 4060 nM | 218 nM | 267 nM |  |
| MLLIAQAEA |  |  |  |  |  | IC50 (HLA-A*68:02; [4]): 6150 nM; IC50 (HLA-A*02:01; [4]): 82 nM; IC50 (HLA-A*02:02; [4]): 141 nM; IC50 (HLA-A*02:06; [4]): 645 nM; IC50 (HLA-A*02:03; [4]): 123 nM |
| GLYIPGTSVI | ≥ 70000 nM | 1570 nM | 92 nM | 3620 nM | 0.19 nM |  |
| LLLSTTEWQV |  |  |  |  |  | IC50 (HLA-A*68:02; [4]): 10100 nM; IC50 (HLA-A*02:01; [4]): 7.1 nM; IC50 (HLA-A*02:02; [4]): 18 nM; IC50 (HLA-A*02:06; [4]): 13 nM; IC50 (HLA-A*02:03; [4]): 101 nM |
| YLGHSAGFT | 8450 nM | 1560 nM | 874 nM | 4540 nM | 225 nM |  |
| LALTDVEKRI | 14900 nM | 1420 nM | 199 nM | 2410 nM | 403 nM |  |
| ALVFLILCFT |  |  |  |  |  | IC50 (HLA-A*68:02; source organism: SARS-CoV1): 10500 nM; IC50 (HLA-A*02:01; source organism: SARS-CoV1): 161 nM; IC50 (HLA-A*02:02; source organism: SARS-CoV1): 209 nM; IC50 (HLA-A*02:06; source organism: SARS-CoV1): 229 nM; IC50 (HLA-A*02:03; source organism: SARS-CoV1): 1120 nM |
| SLIYYQNEVT | 7200 nM | 529 nM | 77 nM | 4310 nM | 606 nM |  |
